Experimental findings from article PMC11592472 are described below.

For assay [1], the target named is equine LH/CGR trileucine mutant eLH/CGR-AAA (equine).
Assay [2] addresses equine LH/CGR trileucine mutant eLH/CGR-LAL (equine).
In assay [3] the target is equine LH/CGR trileucine mutant eLH/CGR-ALL (equine).
The target of assay [4] is equine LH/CGR trileucine mutant eLH/CGR-LLA (equine).
In assay [5] the target is equine lutropin/choriogonadotropin receptor, wild type (eLH/CGR-wt) (equine).

Take “recombinant equine chorionic gonadotropin (rec-eCG) (from UniProt P01220 25-120; P08751 21-169) (ligand)”: the EC50 of the cAMP response (HTRF) of transfected CHO-K1 cells stimulated with rec-eCG for 30 min at room temperature is 0.0352 µg/mL in assay [1]; 0.0143 µg/mL in assay [2]; 0.0046 µg/mL in assay [3]; 0.0197 µg/mL in assay [4]; 0.0185 µg/mL in assay [5].
